The DeepSol protein solubility set

experiment: soluble on expression in E. coli; label from the status in PepcDB or PDB records

Sequence	soluble on expression in E. coli
MFFKQFYDKHLSQASYLIGCQKTGEAMIIDPIRDLSSYIRVADEEGLTITHAAETHIHADFASGIRDVAIKLNASIYVSGESDDTLGYKNMPNQTHFVQHNDDIYVGNIKLKVLHTPGHTPESISFLLTDEGAGAQVPMGLFSGDFIFVGDIGRPDLLEKAVKVEGSSEIGAKQMFKSIESIKDLPNYIQIWPGHGAGSPCGKSLGAIPTSTLGYEKQTNWAFSENNEATFIDKLISDQPAPPHHFAQMKKINQFGMNLYQPYTVYPATNTNRLTFDLRSKEAYHGGHIEGTINIPYDKNFINQIGWYLNYDQEINLIGEYHLVSKATHTLQLIGYDDVAGYQLPQSKIQTRSIHSEDITGNESHILDVRNDNEWNNGHLSQAVHVPHGKLLETDLPFNRNDVIYVHCQSGIRSSIAIGILEHKGYHNIINVNEGYKDIHLSLEHHHHHH	soluble
MGSDKIHHHHHHMAKTIRDESTASAYWAAVNTFCALKDVHVIADAPVGCYNLAGVAVMDYTDAIPYLENLTPTSLTEREISSSGSSQIVQETIEKLMGSGKQLILVSSAESEMIGSDHQHMLAMKYPSVRFFASDSLGENEWQGRDRALAWLFDQFDDGQPSQIEPGTVSIIGPTYGCFNSPADLAEVKRLVTGAGGRVAHVYPFESKAAEITKLKNSAAIVVMYREFGAALAEKLGRPVLYAPFGIEETDRFIGKIGRLCGTPEQATRFIAEEKRTTLSPVWDLWRGPQSEWFPTIRFGVVASKSYADGIKHVLGDELGMQCLFSLDSAEVDNNAVRKEIVQKQPQFLYGRMPDKIYLAEADAKSRFIPAGFPGPIVRRALGTPFMGHSGVVWLVQEIVNALYDTLFNFLPITRRQQAAAPTKPLKWTPEANAILDGIVRKAPFISQISFGRELKRKAENLAASRGADTVTPDILQQLG	not soluble
MAHHHHHHMSVTIKLSNGSQKTVEVPDLNITVAKFKEIASAVTNIPADEQRVVLRGRVLKDGDVLSAMGMEHGQAVHIVRGQKSTKSDVASPSAQESASTQETQTNTNPQARPETVNPYAALAANLPASGGFSNNIPGNPNPGLQMPPELLSNMLQNPAFMQYFQEMMRNPQFLQQRMQQPQQQSQSQSPFGMNEGEMQRLLNNPMFMQLVLQMMSDPSIMQQLTQSLGGGFPASNTPLFGQQNAPAPNFAQNTGFFQPQGDPRVLYQSQLQQLREMGFTNEQANLAALEQAHGNIDFAIERLLNA	soluble
MGSDKIHHHHHHMENKSAVQLYLELLKKTILFEIWLEYEPYLPASLHISKELSYEPVTVPLPLFLKQYVENHNLKIVNPNVSNNERQGGKDWPRAAHSMVGRKRMNQLQEAMETVVRENIEGDFIETGVWRGGSCIFMNGFLQANNIYYRTVWVADSFEGLPAPNLEQYPKDYGDYLHTFDYLRVSLETVQENFRKYDLLNDQVKFLKGWFKDTLPSAPVEKIAIARLDGDMYESTMDSLVNLYDKVSTGGFIIIDDYGLITCAEAVTDFRSERNIKTPMTQIDDFGIYWRKE	not soluble
MGSDKIHHHHHHMKVAYLSSAYLAPVEYYSKLLNYDKIFIEQHDHYMKQTYRNRCTIAGPEGELALSIPIVKPEEPKCPMKDIRISDHGNWRHLHWNAIESAYNSTPFFEYYKDDFRPFYEKKYEFLTDFNEELCRLVCELIDIQPAIERTKEYKTDFAPNEIDFREAIHPKKDFHRTDPEFIPQPYYQVFEARYGFLPNLSIIDLLFNMGPESLLILQKTCADSQ	not soluble
MGSDKIHHHHHHMDMIVTSKKSSRNANSGCAIHCNDCSMSELCIPFTLNANELEELDNIIERKKPVQKGDKLFQSGDGLKSLYAIRSGTIKSYTITQQGDEQITGFHLAGDVIGFDAIHKQAHQSFAEALETSMICEIPFDTLDSLAGTMPKLRQQIMRLMSHEIISDQEMILLLSKKNAEERLAAFIAKLANRFANRGFSPNEFRLSMTRGDIGNYLGLTVETISRLLGRFQKAQMIAVNGKYITIVDHQALNTLADHTEQ	not soluble
MAQSPFRRMTTPGGYQMSVAMTNCGERGWITDHTGYRYDPVDPRTGVPWPAMPPAFRDLARRAAEQGGFTGFAPDACLVNRYEPGTRLSLHQDKDELDYAAPIVSVSLGLPATFLFGGMARSDKPRRFRLVHGDVVVWGGASRLAYHGVAPLADGEHALLGRQRINLTFRKVLLEHHHHHH	soluble
